Reference: article PMC2148140

Molecular target: human Erd2p (KDEL receptor) (human) (UniProt P24390)
Assay: radioligand binding

UniProt P24390, sequence (P24390 whole entry): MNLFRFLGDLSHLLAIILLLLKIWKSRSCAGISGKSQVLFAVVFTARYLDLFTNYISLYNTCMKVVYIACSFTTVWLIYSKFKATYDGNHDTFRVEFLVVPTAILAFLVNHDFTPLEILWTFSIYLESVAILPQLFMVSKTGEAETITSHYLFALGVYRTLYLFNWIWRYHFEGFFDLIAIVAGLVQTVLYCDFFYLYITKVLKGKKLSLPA

cholera toxin A subunit (wild-type CTX-A), 125I-labelled (natural protein)
binding at pH 6 as percent of the binding at pH 5: 60%
